# Reference: patent US11230581B2, “Peptides and combination of peptides for use in immunotherapy against ovarian cancer and other cancers” (Immatics Biotechnologies GmbH, priority 2015, dated 2022)
# Target: HLA-A*02:01 (Homo sapiens, UniProt P04439, D140Y/D185E/D98H/E176V/E277Q/G131W/G231S/I119V/I121R/I166T/I218V/L300P/L318F/N151K/N90K/P208A/P217A/Q86G/Q94H/R138H/R169H/T345S)
# Assay: MHC binding assay (UV-ligand exchange, β2m ELISA, peptide exchange yield)
# Conditions: binding of HLA-class I restricted peptides to HLA-A*02:01, UV-ligand exchange
# Method in brief: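 Yield of stabilized complexes quantified via the β2m light chain in an ELISA (streptavidin capture, 100-fold diluted monomers, HRP anti-β2m 2 ug/ml at 37 °C, TMB, A450). The complexes come from UV-triggered replacement of a photocleavable ligand by the candidate peptide.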
row,"Peptide exchange (MHC class I binding score, peptide exchange yield)",Substance
1,“+++” (≥50 = +++),531 (YTLPIASSIRL; listed as Homo sapiens) [compound 531]
2,“+++” (≥50 = +++),537 (TLAPGEVLRSV; listed as Homo sapiens) [compound 537]
3,“++” (≥20% = ++),538 (LLLAHIIAL; listed as Homo sapiens) [compound 538]
4,“+++” (≥50 = +++),539 (ALFDAQAQV; listed as Homo sapiens) [compound 539]
5,“+++” (≥50 = +++),541 (SMLEPVPEL; listed as Homo sapiens) [compound 541]
6,“+++” (≥50 = +++),542 (RVWDISTVSSV; listed as Homo sapiens) [compound 542]
7,“+++” (≥50 = +++),543 (GLLPTPITQQASL; listed as Homo sapiens) [compound 543]
8,“+++” (≥50 = +++),544 (LLWDVPAPSL; listed as Homo sapiens) [compound 544]
9,“+++” (≥50 = +++),545 (LLADLLHNV; listed as Homo sapiens) [compound 545]
10,“+++” (≥50 = +++),546 (VMIAGKVAVV; listed as Homo sapiens) [compound 546]
11,“+++” (≥50 = +++),547 (TLDITPHTV; listed as Homo sapiens) [compound 547]
12,“++” (≥20% = ++),548 (ALWENPESGEL; listed as Homo sapiens) [compound 548]
13,“+++” (≥50 = +++),549 (AMLENASDIKL; listed as Homo sapiens) [compound 549]
14,“+++” (≥50 = +++),550 (FLYDEIEAEVNL; listed as Homo sapiens) [compound 550]
15,“+++” (≥50 = +++),551 (KLYESLLPFA; listed as Homo sapiens) [compound 551]
16,“++++” (≥75% = ++++),552 (GLLDLPFRVGV; listed as Homo sapiens) [compound 552]
17,“++++” (≥75% = ++++),553 (SLLNQDLHWSL; listed as Homo sapiens) [compound 553]
18,“+++” (≥50 = +++),554 (LLMPSSEDLLL; listed as Homo sapiens) [compound 554]
19,“+++” (≥50 = +++),555 (YVLEGLKSV; listed as Homo sapiens) [compound 555]
20,“+++” (≥50 = +++),556 (FLTDLEDLTL; listed as Homo sapiens) [compound 556]
21,“+++” (≥50 = +++),557 (KLYDDMIRL; listed as Homo sapiens) [compound 557]
22,“+++” (≥50 = +++),558 (GLLENIPRV; listed as Homo sapiens) [compound 558]

row,"Peptide exchange (MHC class I binding score, peptide exchange yield)",Substance
1,“++” (≥20% = ++),559 (VTVPPGPSL; listed as Homo sapiens) [compound 559]
2,“+++” (≥50 = +++),560 (ALWDIETGQQTTT; listed as Homo sapiens) [compound 560]
3,“+++” (≥50 = +++),561 (YLQLTQSEL; listed as Homo sapiens) [compound 561]
4,“+++” (≥50 = +++),562 (YLEELPEKLKL; listed as Homo sapiens) [compound 562]
5,“+++” (≥50 = +++),563 (WLLPYNGVTV; listed as Homo sapiens) [compound 563]
6,“+++” (≥50 = +++),564 (TVTNAVVTV; listed as Homo sapiens) [compound 564]
7,“++” (≥20% = ++),565 (ALQETPTSV; listed as Homo sapiens) [compound 565]
8,“++” (≥20% = ++),566 (VIADGGIQNV; listed as Homo sapiens) [compound 566]
9,“+++” (≥50 = +++),567 (SLLPLDDIVRV; listed as Homo sapiens) [compound 567]
10,“++++” (≥75% = ++++),568 (TLYDIAHTPGV; listed as Homo sapiens) [compound 568]
11,“+++” (≥50 = +++),569 (KLVDRTWTL; listed as Homo sapiens) [compound 569]
12,“++” (≥20% = ++),570 (ALANQIPTV; listed as Homo sapiens) [compound 570]
13,“+++” (≥50 = +++),571 (LLLTTIPQI; listed as Homo sapiens) [compound 571]
14,“+++” (≥50 = +++),572 (ALADLIEKELSV; listed as Homo sapiens) [compound 572]
15,“+++” (≥50 = +++),573 (ILVANAIVGV; listed as Homo sapiens) [compound 573]
16,“++” (≥20% = ++),574 (YLLQEPPRTV; listed as Homo sapiens) [compound 574]
17,“+++” (≥50 = +++),575 (YLISQVEGHQV; listed as Homo sapiens) [compound 575]
18,“++++” (≥75% = ++++),576 (ILLNNSGQIKL; listed as Homo sapiens) [compound 576]
19,“+++” (≥50 = +++),577 (VMFEDGVLMRL; listed as Homo sapiens) [compound 577]
20,“+++” (≥50 = +++),578 (FLDPGGPMMKL; listed as Homo sapiens) [compound 578]
21,“++” (≥20% = ++),579 (NLMEMVAQL; listed as Homo sapiens) [compound 579]
22,“++” (≥20% = ++),580 (LLMENAERV; listed as Homo sapiens) [compound 580]

row,"Peptide exchange (MHC class I binding score, peptide exchange yield)",Substance
1,“+++” (≥50 = +++),582 (TLCDVILMV; listed as Homo sapiens) [compound 582]
2,“+++” (≥50 = +++),583 (ILANDGVLLAA; listed as Homo sapiens) [compound 583]
3,“+++” (≥50 = +++),584 (ALAEVAAMENV; listed as Homo sapiens) [compound 584]
4,“++++” (≥75% = ++++),585 (ALWDLAADKQTL; listed as Homo sapiens) [compound 585]
5,“+++” (≥50 = +++),586 (KLKPGDLVGV; listed as Homo sapiens) [compound 586]
6,“+++” (≥50 = +++),587 (VMNDRLYAI; listed as Homo sapiens) [compound 587]
7,“+++” (≥50 = +++),588 (SLLPLSHLV; listed as Homo sapiens) [compound 588]
8,“+++” (≥50 = +++),589 (KLYPQLPAEI; listed as Homo sapiens) [compound 589]
9,“++” (≥20% = ++),590 (SLIEKLWQT; listed as Homo sapiens) [compound 590]
10,“+++” (≥50 = +++),591 (SMAELDIKL; listed as Homo sapiens) [compound 591]
11,“+++” (≥50 = +++),592 (RLLSAAENFL; listed as Homo sapiens) [compound 592]
12,“+++” (≥50 = +++),593 (GLPRFGIEMV; listed as Homo sapiens) [compound 593]
13,“+++” (≥50 = +++),594 (IMLKGDNITL; listed as Homo sapiens) [compound 594]
14,“+++” (≥50 = +++),595 (VLLSIYPRV; listed as Homo sapiens) [compound 595]
15,“+++” (≥50 = +++),596 (ALLDQTKTLAESAL; listed as Homo sapiens) [compound 596]
16,“+++” (≥50 = +++),597 (KLLEGQVIQL; listed as Homo sapiens) [compound 597]
17,“+++” (≥50 = +++),598 (FLFPHSVLV; listed as Homo sapiens) [compound 598]
18,“+++” (≥50 = +++),599 (YLLNDASLISV; listed as Homo sapiens) [compound 599]
19,“+++” (≥50 = +++),600 (ALAAPDIVPAL; listed as Homo sapiens) [compound 600]
20,“+++” (≥50 = +++),601 (SAFPFPVTV; listed as Homo sapiens) [compound 601]
21,“++++” (≥75% = ++++),602 (YLLEQIKLIEV; listed as Homo sapiens) [compound 602]
22,“++” (≥20% = ++),603 (FLIEPEHVNTV; listed as Homo sapiens) [compound 603]
